Test results from patent US20220340678A1 (MURAL ONCOLOGY, published 2022).
Each block holds one binder with its values, some of them ahead of it.

How the values were obtained:
biotinylated human uPAR [1] = biological target: T1, biotinylated human uPAR (human, UniProt Q03405 23-303, limits assumed, biotinylated (site not stated)); assay: BLI (Octet) on biotinylated human uPAR; row 'None': no first antibody
biotinylated human uPAR [2] = biological target: T1, biotinylated human uPAR; assay: BLI (Octet) competition on biotinylated human uPAR; competitor (first antibody): ATN-368 (ATN-658)
[3] = biological target: T2, human uPAR expressed on HEK293 cells (human, UniProt Q03405 23-305); assay: flow cytometry, HEK293 cells expressing human uPAR, 100 nM uPA present
T2 construct: whole, on cells; also called Hu-uPAR

[4] = biological target: Human uPAR DII-DIII domain HisAvi Tag (human, biotinylated (site not stated)); assay: BLI (Octet), biotinylated domain on SA sensor, antibody 200 nM
[5] = biological target: T3, histidine-tagged human uPAR (Sino#10925-H08H) (human, UniProt Q03405 23-303); assay: BLI (Octet), antibody on anti-mouse Fc sensor, uPAR in solution
T3 construct: also called uPAR-His

biotinylated human uPAR [6] = biological target: T1, biotinylated human uPAR; assay: BLI (Octet) competition on biotinylated human uPAR; competitor (first antibody): M1
biotinylated human uPAR [7] = biological target: T1, biotinylated human uPAR; assay: BLI (Octet) competition on biotinylated human uPAR; competitor (first antibody): M5
[8] = biological target: T3, histidine-tagged human uPAR …; assay: BLI (Octet), uPAR on sensor, antibody in solution (avidity)
mouse uPAR on cells [9] = biological target: T4, mouse uPAR on cells (mouse, UniProt P35456 24-298); assay: flow cytometry, HEK293 cells expressing mouse uPAR, 100 nM uPA present
T4 construct: whole, on cells; also called Ms-uPAR; mouse uPAR (CD87)
T4 sequence (looked up): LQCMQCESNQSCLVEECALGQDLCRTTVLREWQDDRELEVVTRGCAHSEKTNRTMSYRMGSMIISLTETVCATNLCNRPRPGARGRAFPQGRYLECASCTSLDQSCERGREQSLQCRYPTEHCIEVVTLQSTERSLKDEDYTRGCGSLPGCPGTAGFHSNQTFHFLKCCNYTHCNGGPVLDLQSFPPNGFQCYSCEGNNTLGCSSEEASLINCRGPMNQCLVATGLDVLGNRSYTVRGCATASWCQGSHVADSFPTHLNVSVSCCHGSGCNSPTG

[10] = biological target: Recombinant human uPAR his (R&D Systems, 807-UK-100/CF) (human, UniProt Q03405 23-303, biotinylated (sites not given)); assay: SPR (Biacore), biotinylated human uPAR his on streptavidin chip
[11] = biological target: T5, IL-2/IL-15 receptor on HH cells (human); assay: cell-based or functional assay
T5 chain 1: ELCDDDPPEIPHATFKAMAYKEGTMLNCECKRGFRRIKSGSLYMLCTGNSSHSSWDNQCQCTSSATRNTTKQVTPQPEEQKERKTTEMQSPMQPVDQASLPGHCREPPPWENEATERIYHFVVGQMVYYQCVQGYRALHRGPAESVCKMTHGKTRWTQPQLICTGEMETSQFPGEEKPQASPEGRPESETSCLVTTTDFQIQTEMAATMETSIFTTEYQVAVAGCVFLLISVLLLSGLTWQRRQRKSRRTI
T5 chain 2: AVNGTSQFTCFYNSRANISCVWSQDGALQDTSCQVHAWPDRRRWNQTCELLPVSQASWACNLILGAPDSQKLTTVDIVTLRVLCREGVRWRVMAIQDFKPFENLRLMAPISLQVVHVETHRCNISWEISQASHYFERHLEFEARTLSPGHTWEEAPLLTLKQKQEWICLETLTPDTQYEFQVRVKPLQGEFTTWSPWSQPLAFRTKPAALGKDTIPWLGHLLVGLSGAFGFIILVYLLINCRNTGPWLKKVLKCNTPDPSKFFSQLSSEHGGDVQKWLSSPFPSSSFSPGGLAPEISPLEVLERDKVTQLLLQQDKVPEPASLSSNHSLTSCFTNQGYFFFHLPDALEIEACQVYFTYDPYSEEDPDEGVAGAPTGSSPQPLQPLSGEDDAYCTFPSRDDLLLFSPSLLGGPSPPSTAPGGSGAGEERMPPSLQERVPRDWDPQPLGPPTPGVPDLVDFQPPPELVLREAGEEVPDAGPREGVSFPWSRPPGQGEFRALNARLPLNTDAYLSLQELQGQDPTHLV
T5 chain 3: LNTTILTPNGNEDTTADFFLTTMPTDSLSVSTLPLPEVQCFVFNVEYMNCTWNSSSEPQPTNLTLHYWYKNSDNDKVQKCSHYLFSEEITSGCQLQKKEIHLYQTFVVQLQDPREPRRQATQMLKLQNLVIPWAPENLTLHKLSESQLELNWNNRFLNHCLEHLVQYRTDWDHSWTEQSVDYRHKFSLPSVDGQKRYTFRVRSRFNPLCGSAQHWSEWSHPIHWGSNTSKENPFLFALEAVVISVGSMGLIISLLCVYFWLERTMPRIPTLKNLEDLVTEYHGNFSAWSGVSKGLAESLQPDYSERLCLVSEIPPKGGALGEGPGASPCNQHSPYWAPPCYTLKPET

[12] = biological target: IL-2/IL-15 receptor on primary mouse splenocytes (mouse); assay: cell-based or functional assay
[13] = biological target: T6, Recombinant mouse uPAR-Fc (R&D Systems, Cat. No. 531-PA-100) (mouse, UniProt P35456 24-297, limits assumed); assay: SPR (Biacore), mouse uPAR-Fc captured on anti-human antibody chip
T6 construct: not shown: Fc of the bought fusion (captured with the human antibody capture kit); not described
T6 sequence (looked up): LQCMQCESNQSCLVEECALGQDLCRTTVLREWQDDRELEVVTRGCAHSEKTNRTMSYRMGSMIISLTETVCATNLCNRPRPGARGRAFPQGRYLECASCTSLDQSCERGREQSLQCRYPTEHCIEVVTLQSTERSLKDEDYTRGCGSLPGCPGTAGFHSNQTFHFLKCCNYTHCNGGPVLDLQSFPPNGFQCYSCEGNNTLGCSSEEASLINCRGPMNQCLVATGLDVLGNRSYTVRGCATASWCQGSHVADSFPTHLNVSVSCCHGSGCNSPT

mouse uPAR on cells [14] = biological target: T4, mouse uPAR on cells; assay: flow cytometry on MC38 cells (express mouse uPAR), anti-His detection

B1: M8 (antibody, V domains shown)
VH: QIQLVQSGPELKKPGETVKISCKASGNTFTDYGMNWVKQSPGKGLKWMGWINTNTGEPTYADDFKGRFAFSLETSASTAYLQINNLKNEDMATYFCAHYSFDYWGQGTTLTVSS
VL: DIQMTQSPASLSVSVGQTVTITCRTSENIYSNLAWYQQKPGKSPQLLVYAATNLADGVPSRFSGSGSGTQYSLKINSLQSEDFGSYYCQHFWGTPWTFGGGTKLEIK
notes: Mouse hybridoma antibody; also called anti-uPAR antibody M8; parental M8
- response in competition assay (biotinylated human uPAR [1]): 0.284
- response in competition assay (biotinylated human uPAR [2]): 0.31
- EC50 [3]: 0.54 nM
- binding result [4]: binds
- Kd [5]: 1.08 nM
- koff [5]: 0.00063 s⁻¹
- kon [5]: 584000 M⁻¹ s⁻¹
- response in competition assay (biotinylated human uPAR [6]): 0.302
- response in competition assay (biotinylated human uPAR [7]): 0.321
- Kd [8]: < 0.001 nM
- koff [8]: < 1e-07 s⁻¹
- kon [8]: 311000 M⁻¹ s⁻¹
- EC50 (mouse uPAR on cells [9]): 31.4 nM

B2: M5 (antibody, V domains shown)
VH: QVQLKESGPGLVAPSQSLSITCTVSGFSLTNYGVHWVRQPPGKDLEWLVVIWSDGGTTYNSALKSRLSISKDNSKSQVFLKMNSLQTDDTAMYYCARGGRSDLFAYWGQGTLVTVSA
VL: DVLMTQTPLSLPVSLGDQASISCRSSQSIVHSNGNTYLEWYLQKPGQSPKLLIYKVSNRFSGVPDRFSGSGSGTDFTLKISRVEAEDLGVYYCFQGSHVPYTFGGGTKLEIK
notes: Mouse hybridoma antibody; also called anti-uPAR antibody M5; parental M5
- response in competition assay (biotinylated human uPAR [1]): 0.181
- response in competition assay (biotinylated human uPAR [2]): 0.179
- EC50 [3]: 2.53 nM
- binding result [4]: binds
- Kd [5]: 33.1 nM
- koff [5]: 0.000962 s⁻¹
- kon [5]: 29100 M⁻¹ s⁻¹
- response in competition assay (biotinylated human uPAR [6]): 0.161
- response in competition assay (biotinylated human uPAR [7]): -0.0173
- Kd [8]: < 0.001 nM
- koff [8]: < 1e-07 s⁻¹
- kon [8]: 28300 M⁻¹ s⁻¹
- EC50 (mouse uPAR on cells [9]): 93.8 nM

B5: M43 (antibody, V domains shown)
VH: QVQLQQSGAELARPGASVNLSCKASGYTFTSYGISWVKQRTGQGLEWIGEIYPRSGNTYYNEKFKGKATLTADKSSRTAYMELRSLTSEDSAVYFCAGKDYGSTYADYWGQGTTLTVSS
VL: QIVLTQSPAIMSASPGEKVTMTCSASSSVSSRYLHWYQQKSGASPKLWIYGTSNLASGVPARFSGSGSGTSYSLTINSVEAEDAATYYCQQYHSDPLTFGAGTKLELK
notes: Mouse hybridoma antibody; also called anti-uPAR antibody M43; parental M43
- response in competition assay (biotinylated human uPAR [1]): 0.295
- response in competition assay (biotinylated human uPAR [2]): 0.342
- EC50 [3]: 0.3 nM
- binding result [4]: binds
- Kd [5]: 7.47 nM
- koff [5]: 0.00883 s⁻¹
- kon [5]: 1.18e+06 M⁻¹ s⁻¹
- response in competition assay (biotinylated human uPAR [6]): 0.312
- response in competition assay (biotinylated human uPAR [7]): 0.0175
- Kd [8]: < 0.001 nM
- koff [8]: < 1e-07 s⁻¹
- kon [8]: 554000 M⁻¹ s⁻¹
- EC50 (mouse uPAR on cells [9]): 2.83 nM

Now from value to binder:

- Kd [10]: 0.59 nM
- koff [10]: 0.00049 s⁻¹
- kon [10]: 830000 M⁻¹ s⁻¹
- pSTAT5 EC50, HH cells [11]: 1.5 nM
B3: Human cpIL-2:IL-2Ra:Human uPA-ATF-His6 (other)
chain: SKNFHLRPRDLISNINVIVLELKGSETTFMCEYADETATIVEFLNRWITFSQSIISTLTGGSSSTKKTQLQLEHLLLDLQMILNGINNYKNPKLTRMLTFKFYMPKKATELKHLQCLEEELKPLEEVLNLAQGSGGGSELCDDDPPEIPHATFKAMAYKEGTMLNCECKRGFRRIKSGSLYMLCTGNSSHSSWDNQCQCTSSATRNTTKQVTPQPEEQKERKTTEMQSPMQPVDQASLPGHCREPPPWENEATERIYHFVVGQMVYYQCVQGYRALHRGPAESVCKMTHGKTRWTQPQLICTGGGSGGSNELHQVPSNCDCLNGGTCVSNKYFSNIHWCNCPKKFGGQHCEIDKSKTCYEGNGHFYRGKASTDTMGRPCLPWNSATVLQQTYHAHRSDALQLGLGKHNYCRNPDNRRRPWCYVQVGLKPLVQECMVHDCAHHHHHH
notes: also called 99

- pSTAT5 EC50, mouse NK cells [12]: 0.15 nM
- pSTAT5 EC50, mouse Tregs [12]: 1.7 nM
- pSTAT5 EC50, mouse memory CD8 T cells [12]: 0.5 nM
- Kd [13]: 0.14 nM
- koff [13]: 0.0002 s⁻¹
- kon [13]: 1.5e+06 M⁻¹ s⁻¹
- EC50 (mouse uPAR on cells [14]): 0.41 nM
B4: His6:Mouse uPA-ATF:mouse IL-15Ra:cpIL-15 (other)
chain: HHHHHHGSVLGAPDESNCGCQNGGVCVSYKYFSRIRRCSCPRKFQGEHCEIDASKTCYHGNGDSYRGKANTDTKGRPCLAWNAPAVLQKPYNAHRPDAISLGLGKHNYCRNPDNQKRPWCYVQIGLRQFVQECMVHDCGGSGGTTCPPPVSIEHADIRVKNYSVNSRERYVCNSGFKRKAGTSTLIECVINKNTNVAHWTTPSLKCIRDGGSELEEKTFTEFLQSFIRIVQMFINGGGSNWIDVRYDLEKIESLIQSIHIDTTLYTDSDFHPSCKVTAMNCFLLELQVILHEYSNMTLNETVRNVLYLANSTLSSNKNVAESGCKEC
notes: also called 102

- Kd [10]: 1.1 nM
- koff [10]: 0.00056 s⁻¹
- kon [10]: 500000 M⁻¹ s⁻¹
- pSTAT5 EC50, HH cells [11]: 0.18 nM
B6: His6:Human uPA-ATF:hIL-15Ra:cpIL-15 (other)
chain: HHHHHHSNELHQVPSNCDCLNGGTCVSNKYFSNIHWCNCPKKFGGQHCEIDKSKTCYEGNGHFYRGKASTDTMGRPCLPWNSATVLQQTYHAHRSDALQLGLGKHNYCRNPDNRRRPWCYVQVGLKPLVQECMVHDCAGGSGGITCPPPMSVEHADIWVKSYSLYSRERYICNSGFKRKAGTSSLTECVLNKATNVAHWTTPSLKCIRDGGSELEEKNIKEFLQSFVHIVQMFINGGGSNWVNVISDLKKIEDLIQSMHIDATLYTESDVHPSCKVTAMKCFLLELQVISLESGDASIHDTVENLIILANNSLSSNGNVTESGCKEC
notes: also called 100
